As a reminder, the Kd is a measure of binding affinity in units of concentration.

A value given as a limit tells only on which side of the number the result lay.

The chains are these.
B1: scFv; the commonest letter at each place (parent)
chain 1: EVKLDETGGGLVQPGRPMKLSCVASGFTFSDYWMNWVRQSPEKGLEWVAQIRNKPYNYETYYSDSVKGRFTISRDDSKSSVYLQMNNLRVEDMGIYYCTGSYYGMDYWGQGTSVTVS
chain 2: DVVMTQTPLSLPVSLGDQASISCRSSQSLVHSNGNTYLRWYLQKPGQSPKVLIYKVSNRFSGVPDRFSGSGSGTDFTLKISRVEAEDLGVYFCSQSTHVPWTFGGGTKLEIK

The data set “fluorescein” covers variants of B1. The data set can be described thus: Kd (Tite-Seq). The settings on record: with fluorescein; format: scFv 4-4-20, heavy + light.
Data set [1] covers variants of B1. Nature of the data set: yeast surface expression (ratio to wild type); higher = more expressed. The settings on record: format: scFv 4-4-20, heavy + light.

On to chain 1 S101I Y102W, for which, in the data set with fluorescein, the Kd was at least 10 µM. In data set [1], the yeast surface expression worked out at 0.303.

Consider chain 1 D31A V37E, for which the Kd in the data set with fluorescein is at least 10 µM. Also, the yeast surface expression in data set [1] was found to be 2.19.

Regarding chain 1 D31I W36E, the Kd with fluorescein was at least 10 µM. In addition, the yeast surface expression in data set [1] worked out at 0.663.

In the case of chain 1 D31Y V37Q, the dissociation constant (Kd) with fluorescein came to 0.0592 µM. Besides, in data set [1], the yeast surface expression is 1.38.

chain 1 F29L: the Kd with fluorescein turned out to be 0.0402 µM. In addition, the yeast surface expression in data set [1] was determined as 0.984.

Take chain 1 F29M W33V: the Kd with fluorescein is at least 10 µM. For the same variant, in data set [1], the yeast surface expression turned out to be 0.982.

On to chain 1 F29C M34K W36I, for which the dissociation constant (Kd) in the data set with fluorescein is at least 10 µM. The yeast surface expression in data set [1] worked out at 0.425.

For chain 1 S101A D106L, in the data set with fluorescein, the Kd was 0.00166 µM. In data set [1], the yeast surface expression came to 0.302.

Consider chain 1 M34C V37H, for which, in the data set with fluorescein, the Kd is at least 10 µM. In addition, in data set [1], the yeast surface expression was 0.466.

As for chain 1 Y103M D106F Y107G, the Kd with fluorescein was at least 10 µM. Further, the yeast surface expression in data set [1] turned out to be 0.265.

In the case of chain 1 W33L V37D, the Kd with fluorescein amounted to 1.47 µM. The yeast surface expression in data set [1] is 0.591.

With chain 1 Y107D, the equilibrium dissociation constant (Kd) with fluorescein is 7.72 µM. In addition, the yeast surface expression in data set [1] came to 0.779.

Turning to chain 1 S30Q W33N, the equilibrium dissociation constant (Kd) in the data set with fluorescein was at least 10 µM. Also, the yeast surface expression in data set [1] stood at 0.979.

As for chain 1 G100Y S101E, in the data set with fluorescein, the dissociation constant (Kd) was at least 10 µM. Further, the yeast surface expression in data set [1] stood at 0.708.

Turning to chain 1 Y102L D106R, the equilibrium dissociation constant (Kd) with fluorescein was at least 10 µM. In addition, the yeast surface expression in data set [1] is 0.344.

Turning to chain 1 Y102L D106G, in the data set with fluorescein, the Kd was at least 10 µM. Also, the yeast surface expression in data set [1] came to 0.569.

In the case of chain 1 S101C M105Y Y107T, the equilibrium dissociation constant (Kd) in the data set with fluorescein was at least 10 µM. Further, the yeast surface expression in data set [1] came to 0.488.

Take chain 1 W33H M34R V37T: in the data set with fluorescein, the Kd was at least 10 µM. In addition, the yeast surface expression in data set [1] came to 0.786.

As for chain 1 W33N M34D, the dissociation constant Kd with fluorescein is at least 10 µM. Besides, the yeast surface expression in data set [1] stood at 0.567.

Take chain 1 S30C W36Y: the Kd with fluorescein was determined as 0.0434 µM. Also, in data set [1], the yeast surface expression was 0.691.

Regarding chain 1 T28F W36H, the dissociation constant Kd in the data set with fluorescein is at least 10 µM. In addition, the yeast surface expression in data set [1] came out at 0.598.

Turning to chain 1 Y32E, in the data set with fluorescein, the dissociation constant Kd was at least 10 µM. Moreover, in data set [1], the yeast surface expression was found to be 0.927.

Consider chain 1 G100S Y102T, for which the Kd with fluorescein worked out at 0.0233 µM. For the same variant, the yeast surface expression in data set [1] was found to be 0.74.

Take chain 1 F29L W33A: in the data set with fluorescein, the dissociation constant (Kd) is at least 10 µM. For the same variant, the yeast surface expression in data set [1] stood at 0.763.

With chain 1 G100Q Y107L G109E, in the data set with fluorescein, the Kd was at least 10 µM. Further, the yeast surface expression in data set [1] stood at 0.226.

Consider chain 1 G100K M105D, for which the Kd in the data set with fluorescein was at least 10 µM. In data set [1], the yeast surface expression worked out at 0.375.

In the case of chain 1 S101Y D106K, the Kd with fluorescein is at least 10 µM. For the same variant, the yeast surface expression in data set [1] is 0.117.

chain 1 D106H: in the data set with fluorescein, the Kd was at least 10 µM. In addition, the yeast surface expression in data set [1] came to 0.557.

Take chain 1 D106N: the dissociation constant (Kd) with fluorescein is 0.00131 µM. Also, the yeast surface expression in data set [1] worked out at 0.681.

As to chain 1 T28A F29Y, in the data set with fluorescein, the dissociation constant Kd was determined as 0.0015 µM. In addition, the yeast surface expression in data set [1] came to 1.06.

For chain 1 G100V S101M, in the data set with fluorescein, the Kd is at least 10 µM. Moreover, the yeast surface expression in data set [1] came to 0.712.

chain 1 M34Q W36E: the Kd with fluorescein is at least 10 µM. The yeast surface expression in data set [1] was 2.19.

chain 1 Y32I W36Y: the dissociation constant Kd with fluorescein is at least 10 µM. Further, the yeast surface expression in data set [1] was 0.612.

With chain 1 Y102D W108T, the dissociation constant Kd with fluorescein came to 0.00917 µM. Also, the yeast surface expression in data set [1] turned out to be 0.785.

As for chain 1 F29T Y32S W33H, the dissociation constant Kd with fluorescein was at least 10 µM. Moreover, the yeast surface expression in data set [1] was determined as 0.659.

On to chain 1 G100V W108C, for which, in the data set with fluorescein, the dissociation constant Kd turned out to be 5.96 µM. The yeast surface expression in data set [1] worked out at 0.628.

On to chain 1 N35L, for which the Kd in the data set with fluorescein is at least 10 µM. Further, the yeast surface expression in data set [1] is 0.692.

Consider chain 1 Y102S M105K, for which, in the data set with fluorescein, the Kd worked out at 0.00251 µM. For the same variant, the yeast surface expression in data set [1] is 1.02.

As for chain 1 Y32C M34Y, the Kd with fluorescein was at least 10 µM. Also, the yeast surface expression in data set [1] came out at 0.843.

Consider chain 1 F29G S30K, for which, in the data set with fluorescein, the equilibrium dissociation constant (Kd) was at least 10 µM. Further, in data set [1], the yeast surface expression stood at 1.04.

In the case of chain 1 F29G S30E, the Kd with fluorescein was at least 10 µM. The yeast surface expression in data set [1] amounted to 1.

For chain 1 G100R M105Y W108P, the Kd in the data set with fluorescein is at least 10 µM. In addition, the yeast surface expression in data set [1] was determined as 0.298.

With chain 1 G100H S101H, the Kd with fluorescein was at least 10 µM. Moreover, in data set [1], the yeast surface expression stood at 0.273.

As to chain 1 G100R G109C, in the data set with fluorescein, the Kd was at least 10 µM. Moreover, the yeast surface expression in data set [1] stood at 0.173.

Consider chain 1 Y102V Y103G Y107F, for which the dissociation constant (Kd) in the data set with fluorescein was 6.27 µM. In data set [1], the yeast surface expression came out at 1.12.

For chain 1 Y107K W108Q, in the data set with fluorescein, the equilibrium dissociation constant (Kd) is at least 10 µM. Also, the yeast surface expression in data set [1] amounted to 0.659.

In the case of chain 1 S30W Y32G, the dissociation constant (Kd) in the data set with fluorescein turned out to be 1.55 µM. In data set [1], the yeast surface expression amounted to 0.706.

Take chain 1 F29P W36E: the Kd in the data set with fluorescein was at least 10 µM. In data set [1], the yeast surface expression was 0.482.

Consider chain 1 W33D M34W, for which, in the data set with fluorescein, the equilibrium dissociation constant (Kd) was at least 10 µM. The yeast surface expression in data set [1] was determined as 1.03.

Regarding chain 1 T28F S30T, the Kd with fluorescein turned out to be 0.00468 µM. Besides, in data set [1], the yeast surface expression was found to be 0.857.

On to chain 1 S30Y V37H, for which, in the data set with fluorescein, the Kd was at least 10 µM. Also, the yeast surface expression in data set [1] is 0.57.

For the variant chain 1 S101V Y103V, the Kd with fluorescein was at least 10 µM. Moreover, the yeast surface expression in data set [1] was determined as 0.316.

As for chain 1 G104P Y107M G109M, in the data set with fluorescein, the dissociation constant (Kd) was at least 10 µM. Moreover, in data set [1], the yeast surface expression was found to be 0.257.

As to chain 1 S101L D106K, in the data set with fluorescein, the dissociation constant Kd is at least 10 µM. In data set [1], the yeast surface expression was determined as 0.379.

For chain 1 Y32T V37H, the equilibrium dissociation constant (Kd) in the data set with fluorescein was at least 10 µM. Besides, the yeast surface expression in data set [1] was determined as 0.624.

In the case of chain 1 S101R W108Q, the Kd with fluorescein is at least 10 µM. Besides, the yeast surface expression in data set [1] was 0.346.

Regarding chain 1 D106N W108Q, in the data set with fluorescein, the Kd is at least 10 µM. For the same variant, in data set [1], the yeast surface expression worked out at 0.453.

For the variant chain 1 S101Y G104H, in the data set with fluorescein, the Kd is at least 10 µM. The yeast surface expression in data set [1] came to 0.343.

The values above are taken from the FLAb antibody collection (doi:10.7554/elife.23156).
